Laboratory results as given in paper PMC8362221.

Molecular target: Idelvion (commercial albumin-fused factor IX) (human) (UniProt P02768)
Assay: SPR

- Kd: 150 nM
Substance: soluble monomeric human neonatal Fc receptor, His-tagged (hFcRn‐His) (from UniProt P55899;P61769)
